# Experimental data published in article doi:10.1101/2021.08.24.457465.
# Like-named read-outs stand apart in the source and are kept apart here.
# T1: ToPif1 (wild type), crystal (Thermus oshimai, UniProt K7RJ88 64-507)
# T1 sequence: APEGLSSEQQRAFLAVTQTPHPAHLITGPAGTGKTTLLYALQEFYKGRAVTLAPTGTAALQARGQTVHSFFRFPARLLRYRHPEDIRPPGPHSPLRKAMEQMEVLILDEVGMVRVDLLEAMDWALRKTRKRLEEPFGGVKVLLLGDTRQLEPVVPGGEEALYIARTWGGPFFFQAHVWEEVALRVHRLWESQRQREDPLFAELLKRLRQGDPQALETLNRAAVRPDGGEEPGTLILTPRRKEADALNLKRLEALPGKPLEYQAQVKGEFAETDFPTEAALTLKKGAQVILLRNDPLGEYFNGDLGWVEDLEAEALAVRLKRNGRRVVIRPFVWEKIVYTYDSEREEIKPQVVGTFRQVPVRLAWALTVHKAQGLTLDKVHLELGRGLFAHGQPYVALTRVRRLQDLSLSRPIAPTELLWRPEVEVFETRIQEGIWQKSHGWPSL
# T2: ToPif1 (wild type) (Thermus oshimai, UniProt K7RJ88 64-507)
# T2 sequence: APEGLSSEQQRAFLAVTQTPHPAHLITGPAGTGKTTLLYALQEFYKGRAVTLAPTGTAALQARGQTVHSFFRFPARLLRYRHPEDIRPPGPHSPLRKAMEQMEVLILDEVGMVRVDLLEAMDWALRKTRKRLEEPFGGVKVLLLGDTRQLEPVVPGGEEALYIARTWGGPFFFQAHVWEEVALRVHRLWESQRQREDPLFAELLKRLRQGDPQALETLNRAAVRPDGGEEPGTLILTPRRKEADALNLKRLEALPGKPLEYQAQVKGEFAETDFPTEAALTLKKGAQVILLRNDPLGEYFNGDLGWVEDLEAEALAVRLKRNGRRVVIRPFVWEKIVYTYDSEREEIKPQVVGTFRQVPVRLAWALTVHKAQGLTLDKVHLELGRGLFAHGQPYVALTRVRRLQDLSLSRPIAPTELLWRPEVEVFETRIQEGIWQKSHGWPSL
# How the values were obtained:
# [1] = molecular target: T1, ToPif1 (wild type), crystal; assay: X-ray crystallography
# ToPif1 (wild type) [2] = molecular target: T2, ToPif1 (wild type); assay: fluorescence anisotropy
# ToPif1 (wild type) [3] = molecular target: T2, ToPif1 (wild type); assay: fluorescence anisotropy; remark: listed apart in the source
# ToPif1 (wild type) [4] = molecular target: T2, ToPif1 (wild type); assay: fluorescence anisotropy; remark: listed apart in the source
# ToPif1 (wild type) [5] = molecular target: T2, ToPif1 (wild type); assay: fluorescence anisotropy; remark: listed apart in the source
Binder,binding result [1],Kd (ToPif1 (wild type) [2]),Kd (ToPif1 (wild type) [3]),Kd (ToPif1 (wild type) [4]),Kd (ToPif1 (wild type) [5])
TTTTTTGGGTGGGTGGGTGGGTTTTTTTT (structured_DNA) [G4T6/T8],binds,,,,
GGGTTAGGGTTAGGGTTAGGG (structured_DNA) [G4Tel],,~29.6 nM,,,
TTTTTTTTTTTT (ssDNA) [T12],,~29.1 nM,29.1 ± 0.53 nM,26.5 ± 0.71 nM,
AGGGTGGGTGGGTGGG (structured_DNA) [G4CEB],,~23.3 nM,30.3 ± 1.17 nM,,30.9 ± 2.32 nM
